According to paper PMC11209852:

Biological target: GST-fused human AP-2 alpha-C (AP2A2) appendage domain, Ser923Gly (human) (UniProt O94973)
Assay: pull-down

Chain of UniProt O94973 (O94973 whole entry S923G, the tested form may be a part): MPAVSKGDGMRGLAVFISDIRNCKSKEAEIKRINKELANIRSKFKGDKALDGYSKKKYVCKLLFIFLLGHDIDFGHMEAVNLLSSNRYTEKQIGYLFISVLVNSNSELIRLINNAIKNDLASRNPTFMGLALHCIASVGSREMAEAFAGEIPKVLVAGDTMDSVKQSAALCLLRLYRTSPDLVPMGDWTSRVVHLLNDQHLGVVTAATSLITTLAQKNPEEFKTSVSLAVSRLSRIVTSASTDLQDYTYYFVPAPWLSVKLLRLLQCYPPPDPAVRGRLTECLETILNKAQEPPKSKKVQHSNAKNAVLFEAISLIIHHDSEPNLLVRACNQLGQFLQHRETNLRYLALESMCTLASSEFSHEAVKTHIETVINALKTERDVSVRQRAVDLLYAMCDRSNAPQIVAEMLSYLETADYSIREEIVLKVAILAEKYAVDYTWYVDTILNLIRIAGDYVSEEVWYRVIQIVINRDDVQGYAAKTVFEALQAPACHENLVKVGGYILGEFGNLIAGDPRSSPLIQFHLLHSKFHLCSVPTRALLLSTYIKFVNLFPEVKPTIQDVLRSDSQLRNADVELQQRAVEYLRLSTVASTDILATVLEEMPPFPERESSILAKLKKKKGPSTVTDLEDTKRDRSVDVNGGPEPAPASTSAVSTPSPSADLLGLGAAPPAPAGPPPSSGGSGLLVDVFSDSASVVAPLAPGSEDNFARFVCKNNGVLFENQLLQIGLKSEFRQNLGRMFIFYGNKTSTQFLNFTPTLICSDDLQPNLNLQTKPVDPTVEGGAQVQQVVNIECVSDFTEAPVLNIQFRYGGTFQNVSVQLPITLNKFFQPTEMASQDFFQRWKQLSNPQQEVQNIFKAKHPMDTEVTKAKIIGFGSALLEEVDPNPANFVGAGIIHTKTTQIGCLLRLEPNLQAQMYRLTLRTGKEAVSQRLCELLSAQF

## amphiphysin (from UniProt P49418 1-695) (natural protein)
  percent reduction of pulled-down signal against wildtype AP2A2-ear: 20%

B1: auxilin (natural protein)
chain: MKDSENKGASSPDMEPSYGGGLFDMVKGGAGRLFSNLKDNLKDTLKDTSSRVIQSVTSYTKGDLDFTYVTSRIIVMSFPLDNVDIGFRNQVDDIRSFLDSRHLDHYTVYNLSPKSYRTAKFHSRVSECSWPIRQAPSLHNLFAVCRNMYNWLLQNPKNVCVVHCLDGRAASSILVGAMFIFCNLYSTPGPAIRLLYAKRPGIGLSPSHRRYLGYMCDLLADKPYRPHFKPLTIKSITVSPIPFFNKQRNGCRPYCDVLIGETKIYSTCTDFERMKEYRVQDGKIFIPLNITVQGDVVVSMYHLRSTIGSRLQAKVTNTQIFQLQFHTGFIPLDTTVLKFTKPELDACDVPEKYPQLFQVTLDVELQPHDKVIDLTPPWEHYCTKDVNPSILFSSHQEHQDTLALGGQAPIDIPPDNPRHYGQSGFFASLCWQDQKSEKSFCEEDHAALVNQESEQSDDELLTLSSPHGNANGDKPHGVKKPSKKQQEPAAPPPPEDVDLLGLEGSAMSNSFSPPAAPPTNSELLSDLFGGGGAAGPTQAGQSGVEDVFHPSGPASTQSTPRRSATSTSASPTLRVGEGATFDPFGAPSKPSGQDLLGSFLNTSSASSDPFLQPTRSPSPTVHASSTPAVNIQPDVSGGWDWHAKPGGFGMGSKSAATSPTGSSHGTPTHQSKPQTLDPFADLGTLGSSSFASKPTTPTGLGGGFPPLSSPQKASPQPMGGGWQQGGAYNWQQPQPKPQPSMPHSSPQNRPNYNVSFSAMPGGQNERGKGSSNLEGKQKAADFEDLLSGQGFNAHKDKKGPRTIAEMRKEEMAKEMDPEKLKILEWIEGKERNIRALLSTMHTVLWAGETKWKPVGMADLVTPEQVKKVYRKAVLVVHPDKATGQPYEQYAKMIFMELNDAWSEFENQGQKPLY
  percent reduction of pulled-down signal against wildtype AP2A2-ear: 70%

B2: AP180 (natural protein)
chain: MSGQTLTDRIAAAQYSVTGSAVARAVCKATTHEVMGPKKKHLDYLIQATNETNVNIPQMADTLFERATNSSWVVVFKALVTTHHLMVHGNERFIQYLASRNTLFNLSNFLDKSGSHGYDMSTFIRRYSRYLNEKAFSYRQMAFDFARVKKGADGVMRTMAPEKLLKSMPILQGQIDALLEFDVHPNELTNGVINAAFMLLFKDLIKLFACYNDGVINLLEKFFEMKKGQCKDALEIYKRFLTRMTRVSEFLKVAEQVGIDKGDIPDLTQAPSSLMETLEQHLNTLEGKKPGNNEGSGAPSPLSKSSPATTVTSPNSTPAKTIDTSPPVDLFATASAAVPVSTSKPSSDLLDLQPDFSSGGAAAAAAPAPPPPAGGATAWGDLLGEDSLAALSSVPSEAQISDPFAPEPTPPTTTAEIATASASASTTTTVTAVTAEVDLFGDAFAASPGEAPAASEGAAAPATPTPVAAALDACSGNDPFAPSEGSAEAAPELDLFAMKPPETSVPVVTPTASTAPPVPATAPSPAPAVAAAAAATTAATAAATTTTTTSAATATTAPPALDIFGDLFESTPEVAAAPKPDAAPSIDLFSTDAFSSPPQGASPVPESSLTADLLSVDAFAAPSPATTASPAKVDSSGVIDLFGDAFGSSASEPQPASQAASSSSASADLLAGFGGSFMAPSPSPVTPAQNNLLQPNFEAAFGTTPSTSSSSSFDPSVFDGLGDLLMPTMAPAGQPAPVSMVPPSPAMAASKALGSDLDSSLASLVGNLGISGTTTKKGDLQWNAGEKKLTGGANWQPKVAPATWSAGVPPSAPLQGAVPPTSSVPPVAGAPSVGQPGAGFGMPPAGTGMPMMPQQPVMFAQPMMRPPFGAAAVPGTQLSPSPTPASQSPKKPPAKDPLADLNIKDFL
  percent reduction of pulled-down signal against wildtype AP2A2-ear: 80%

B3: EPS15 (natural protein)
chain: MAAAAQLSLTQLSSGNPVYEKYYRQVDTGNTGRVLASDAAAFLKKSGLPDLILGKIWDLADTDGKGILNKQEFFVALRLVACAQNGLEVSLSSLNLAVPPPRFHDTSSPLLISGTSAAELPWAVKPEDKAKYDAIFDSLSPVNGFLSGDKVKPVLLNSKLPVDILGRVWELSDIDHDGMLDRDEFAVAMFLVYCALEKEPVPMSLPPALVPPSKRKTWVVSPAEKAKYDEIFLKTDKDMDGFVSGLEVREIFLKTGLPSTLLAHIWSLCDTKDCGKLSKDQFALAFHLISQKLIKGIDPPHVLTPEMIPPSDRASLQKNIIGSSPVADFSAIKELDTLNNEIVDLQREKNNVEQDLKEKEDTIKQRTSEVQDLQDEVQRENTNLQKLQAQKQQVQELLDELDEQKAQLEEQLKEVRKKCAEEAQLISSLKAELTSQESQISTYEEELAKAREELSRLQQETAELEESVESGKAQLEPLQQHLQDSQQEISSMQMKLMEMKDLENHNSQLNWCSSPHSILVNGATDYCSLSTSSSETANLNEHVEGQSNLESEPIHQESPARSSPELLPSGVTDENEVTTAVTEKVCSELDNNRHSKEEDPFNVDSSSLTGPVADTNLDFFQSDPFVGSDPFKDDPFGKIDPFGGDPFKGSDPFASDCFFRQSTDPFATSSTDPFSAANNSSITSVETLKHNDPFAPGGTVVAASDSATDPFASVFGNESFGGGFADFSTLSKVNNEDPFRSATSSSVSNVVITKNVFEETSVKSEDEPPALPPKIGTPTRPCPLPPGKRSINKLDSPDPFKLNDPFQPFPGNDSPKEKDPEIFCDPFTSATTTTNKEADPSNFANFSAYPSEEDMIEWAKRESEREEEQRLARLNQQEQEDLELAIALSKSEISEA
  percent reduction of pulled-down signal against wildtype AP2A2-ear: 30%
